Results reported in patent US8835136B2, “Engineered amine dehydrogenases and methods of use thereof” (Georgia Tech Research Corporation, priority 2012, dated 2014).
Positions count from the first letter of the chain named. Numbers in names are those of the source. ≈ marks a conversion by molar mass, not a printed value.

Legend:
[1] = Solubility of PFPA substrate; type: physicochemical
Description: The enzyme tolerates acetone concentrations as high as 20% v/v. The PFPA substrate has a limited solubility of 40 mM in aqueous media, but was increased to 60 mM with the addition of acetone.

[2] = Reductive amination, spectrophotometric assay at 340 nm; type: biochemical; conditions: for Reductive amination specific activity: maximum specific activity, nonlinear fit; for Specific activity, acetophenone / Specific activity, cyclohexanone / Specific activity, ethyl pyruvate / Specific activity, ethyl-3-oxohexanoate / Specific activity, methyl acetoacetate: 20 mM substrate
Description: (§1) Activity of purified proteins was measured using a spectrophotometric assay at 340 nm, corresponding to the cofactor nicotinamide adenine dinucleotide (NADH, ε340=6220 M^−1 cm^−1) (Dawson, et al., Clarendon Press, (1989). For reductive amination, reactions took place in 500 mM NH4Cl/NH4OH at pH 9.6, with 200 μM NADH and 20 mM of the ketone substrate, unless otherwise specified. For oxidative deamination, reactions took place in 0.1 M NaHCO3/Na2CO3 buffer at pH 10.0, with 1 mM NAD+ with 10 mM of the amine substrate of interest. All reactions were performed at 25° C. unless otherwise specified. Enzyme was added in 10 μL aliquots in dilute concentrations. Enzyme concentrations varied upon activity levels with the substrate present, but were dilute enough to ensure linear conversion kinetics over the analytical time period (10 min to 30 min). Specific activities were then calculated from the stoichiometric conversion of cofactor as determine by the change in absorbance at 340 nm over time.

[3] = Oxidative deamination, spectrophotometric assay at 340 nm; type: biochemical; conditions: for Oxidative deamination specific activity: maximum specific activity, 1,3-DMBA; for Specific activity, (R/S)-MBA: 40 mM racemic, 20 mM of each enantiomer
Description: as §1, with “For oxidative deamination, reactions took place in 0.1 M NaHCO3/Na2CO3 buffer at pH 10.0, with 1 mM NAD+ with 10 mM of the amine substrate of interest.” left out

[4] = Native leucine dehydrogenase activity; type: biochemical
Description: as §1

[5] = Conversion with GDH cofactor recycle system (LeuDH-AmDH); type: biochemical; conditions: 10 mM MIBK
Description: Initial rate kinetic measurements are used primarily in the determination of kinetic parameters to avoid second-order effects and product inhibition. The enzyme's ability to reach complete substrate conversion cannot be determined from these initial rate experiments, and was instead evaluated by chiral GC of overnight conversion with a GDH recycle system. The GDH regenerates the expensive NADH by redox reaction of NAD+ and inexpensive glucose (FIG. 1). In 1.5 mL reactions, replicates containing 10 mM MIBK substrate was mixed with an excess of 12 mM glucose, 10 U GDH, and a catalytic amount of NADH (200 μM). Histag purified K67S/E113V/N261L/V290C LeuDH-AmDH (0.13 mg) was added to each reaction and allowed to convert for 18 hours. An additional 0.13 mg of enzyme was then added and allowed to react for 10 hours to achieve the maximum conversion. One mL aliquots of the final reaction media were adjusted to pH>13 by the addition of 100 μL of 10 N NaOH and derivatized in toluene according to the TFAA protocol.
The product amine was additionally confirmed through ^1H NMR. A 175 mL-scale amination reaction with GDH cofactor recycle was performed similar to previous conversion experiments. […] Following separation, the solvent was removed through rotovap distillation, and the purified product was analyzed by ^1H NMR. […]

[6] = Oxidative deamination, spectrophotometric assay at 340 nm; type: biochemical; conditions: for Specific activity, (R)-MBA / Specific activity, (S)-MBA: 20 mM substrate
Description: as §1, with “For oxidative deamination, reactions took place in 0.1 M NaHCO3/Na2CO3 buffer at pH 10.0, with 1 mM NAD+ with 10 mM of the amine substrate of interest.” left out
The enantioselectivity was initially estimated by measuring the deamination activity toward individual enantiomers of methylbenzylamine (MBA). […] A preference towards (R)-MBA over the corresponding (S)-enantiomer was evident in the discrepancies between the deamination activities of 0.586 U mg^−1 and 0.002 U mg^−1, respectively. These preliminary results were corroborated through direct measurement of the enantioselectivity of the MIBK amination in producing chiral 1,3-DMBA.

[7] = Reductive amination of PFPA, spectrophotometric assay at 340 nm; type: biochemical; conditions: 500 mM NH4Cl/NH4OH pH 9.6, 200 μM NADH; for kcat, amination of PFPA: apparent; for Km: read-out: KM, amination of PFPA
Description: as §1
The activity of the purified protein was evaluated using a spectrophotometric assay at 340 nm as described in Section 3.2.3 at 25° C. in various concentrations of NH4Cl/NH4OH buffer pH 9.6.
Active variants were identified by the rate of change in absorbance at 340 nm, corresponding to the fastest activity. […] Some variants consumed the cofactor too quickly (<5 min) to be observed over multiple time points, and gave low absorbance in the initial time point. These variants were included for further characterization. The successful variants were sequenced (MWG Operon), and each unique sequence was expressed in pET28a/BL21 for histag purification and determination of kcat and KM values with PFPA.

[8] = MIBK substrate, read-out: KM (reductive amination)
[9] = purified LeuDH library 10/11 hits
[10] = purified LeuDH library 10/11 hits, read-out: Amination of MIBK KM
[11] = 1,3-DMBA substrate, read-out: KM (oxidative deamination)
[12] = purified LeuDH library 10/11 hits, read-out: Deamination of 1,3-DMBA KM

## CC(=O)Cc1ccc(F)cc1 [PFPA, para-fluoro phenyl acetone]
[1]; aqueous media
  solubility: 40 mM (≈ 6090 µg/mL)
[1]; aqueous media with added acetone, aqueous with cosolvent or surfactant or cyclodextrin, with the addition of acetone
  solubility: 60 mM (≈ 9130 µg/mL)

B1: WT: LeuDH from Bacillus stearothermophilus, SEQ ID NO:4 (protein, listed as Bacillus stearothermophilus)
chain: ELFQYMEKYDYEQVLFCQDKESGLKAIIVIHDTTLGPALGGTRMWMYNSEEEALEDALRLARGMTYKNAAAGLNLGGGKTVIIGDPRKDKNEAMFRAFGRFIQGLNGRYITAEDVGTTVADMDIIYQETDYVTGISPEFGSSGNPSPATAYGVYRGMKAAAKEAFGSDSLEGKVVAVQGVGNVAYHLCRHLHEEGAKLIVTDINKEAVARAVEEFGAKAVDPNDIYGVECDIFAPCALGGIINDQTIPQLKAKVIAGSADNQLKEPRHGDMIHEMGIVYAPDYVINAGGVINVADELYGYNRERAMKKIEQIYDNIEKVFAIAKRDNIPTYVAADRMAEERIETMRKARSQFLQNGHHILSRRRAR
[2]; MIBK
  activity for reductive amination: no measurable activity
  Reductive amination specific activity: n.m.^[c]
[3]
  Oxidative deamination specific activity: n.m.
[4]
  native activity toward 1-Leu: 112 U mg^−1

B2: K67S/E113V/N261L/V290C: LeuDH-AmDH quadruple variant, SEQ ID NO:10, library 11 (protein)
chain: B1 chain with M64S, K67M, E113V, N261L, V290C
[5]; 1.5 mL, 18 h + 10 h, chiral GC
  average substrate conversion: 92.5%
[5]; 175 mL-scale, 48 hours
  conversion: 84.7%
[2]
  Specific activity, acetophenone: 58.8 mU mg^−1 protein
  Specific activity, cyclohexanone: 123.4 mU mg^−1 protein
  Specific activity, ethyl pyruvate: 13.2 mU mg^−1 protein
  Specific activity, ethyl-3-oxohexanoate: 14.0 mU mg^−1 protein
  Specific activity, methyl acetoacetate: 4.5 mU mg^−1 protein
[2]; MIBK amination
  kcat: 0.46 s⁻¹
[2]; [8]
  Km: 15.1 mM
[2]; MIBK, non-linear Michaelis-Menten fit
  amination activity: 0.69 U mg^−1
[2]; MIBK
  Reductive amination specific activity: 0.690 U mg^−1 protein
[2]; [9]
  Amination of MIBK Vmax: 0.331 ± 0.07
[2]; [10]
  Km: 18.7 ± 11.7 mM
[3]; 20 mM substrate
  Specific activity, cyclohexylamine: 56.0 mU mg^−1 protein
[3]
  Specific activity, (R/S)-MBA: 784.6 mU mg^−1 protein
  Oxidative deamination specific activity: 2.64 U mg^−1 protein
[3]; [11]
  Km: 57.5 mM
[3]; [9]
  Deamination of 1,3-DMBA Vmax: 2.350 ± 0.26
[3]; [12]
  Km: 41.9 ± 9.7 mM
[6]
  deamination activity toward (R)-MBA: 0.586 U mg^−1
  deamination activity toward (S)-MBA: 0.002 U mg^−1
  Specific activity, (R)-MBA: 586.3 mU mg^−1 protein
  Specific activity, (S)-MBA: 1.6 mU mg^−1 protein

B3: K67M/E113V/N261V/V290C: LeuDH-AmDH variant, SEQ ID NO:8, library 10 (protein)
chain: B1 chain with K67M, E113V, N261V, V290C
[2]
  Specific activity, acetophenone: 3.5 mU mg^−1 protein
  Specific activity, cyclohexanone: 18.8 mU mg^−1 protein
  Specific activity, ethyl pyruvate: 19.8 mU mg^−1 protein
  Specific activity, ethyl-3-oxohexanoate: 6.4 mU mg^−1 protein
  Specific activity, methyl acetoacetate: 4.5 mU mg^−1 protein
[2]; [8]
  Km: 10.3 mM
[2]; MIBK
  Reductive amination specific activity: 0.089 U mg^−1 protein
[2]; [9]
  Amination of MIBK Vmax: 0.084 ± 0.01
[2]; [10]
  Km: 21 ± 8.5 mM
[3]
  Specific activity, (R/S)-MBA: 484.0 mU mg^−1 protein
  Oxidative deamination specific activity: 2.81 U mg^−1 protein
[3]; [11]
  Km: 30.9 mM
[3]; [9]
  Deamination of 1,3-DMBA Vmax: 2.894 ± 0.44
[3]; [12]
  Km: 33.1 ± 13 mM
[6]
  Specific activity, (R)-MBA: 476.5 mU mg^−1 protein
  Specific activity, (S)-MBA: 5.0 mU mg^−1 protein

B4: K77W N276E: PheDH-AmDH double variant, SEQ ID NO:3; PheDH library 1 hit 7F10 (protein)
chain: SLVEKTSIIKDFTLFEKMSEHEQVVFCNDPATGLRAIIAIHDTTLGPALGGCRMQPYNSVEEALEDALRLSKGMTYWCAASDVDFGGGKAVIIGDPQKDKSPELFRAFGQFVDSLGGRFYTGTDMGTNMEDFIHAMKETNCIVGVPEAYGGGGDSSIPTAMGVLYGIKATNKMLFGKDDLGGVTYAIQGLGKVGYKVAEGLLEEGAHLFVTDINEQTLEAIQEKAKTTSGSVTVVASDEIYSQEADVFVPCAFGGVVNDETMKQFKVKAIAGSANEQLLTEDHGRHLADKGILYAPDYIVNSGGLIQVADELYEVNKERVLAKTKHIYDAILEVYQQAELDQITTMEAANRMCEQRMAARGRRNSFFTSSVKPKWDIRN
[7]
  kcat, amination of PFPA: 2.63 s⁻¹
  Km: 5.32 mM
[7]; listed as 7F10
  kcat, amination of PFPA: 2.631 ± 0.159 s⁻¹
  Km: 5.3 ± 0.6 mM

B5: Lys77Met: B. badius PheDH single variant (protein, listed as Bacillus badius)
chain: B4 chain with W77M, E276N
[2]; 500 mM NH4Cl/NH4OH pH 9.6, 200 μM NADH, 25° C.
  Amination Activity 40 mM MIBK, kcat: 0.0009 ± 0.000 s⁻¹
[3]; 0.1M Glycine pH 10.0, 1 mM NAD+, 25° C.
  Deamination Activity 40 mM 1,3-DMBA, kcat: 0.0033 ± 0.000 s⁻¹
